Drawing on publication PMC11180174 (2024), this text covers Kd for 2 molecules.

In this experiment the target is SARS-CoV-2 (Wuhan-Hu-1 strain) wild-type spike RBD with C-terminal 8xHis (SARS-CoV-2, UniProt P0DTC2 319-541). Description: BLI. (BLI is a label-free optical method that tracks binding on a fibre tip over time.)

Some results are limits rather than exact numbers.

B1: LY-CoV1404 (antibody, V domains shown)
VH: QITLKESGPTLVKPTQTLTLTCTFSGFSLSISGVGVGWLRQPPGKALEWLALIYWDDDKRYSPSLKSRLTISKDTSKNQVVLKMTNIDPVDTATYYCAHHSISTIFDHWGQGTLVTVSS
VL: QSALTQPASVSGSPGQSITISCTATSSDVGDYNYVSWYQQHPGKAPKLMIFEVSDRPSGISNRFSGSKSGNTASLTISGLQAEDEADYYCSSYTTSSAVFGGGTKLTVL
For the molecule B1, the Kd (as a rule, the constant that tells how readily two partners part at equilibrium) was below 0.01 nM.

B2: 7F3 (antibody, V domains shown)
VH: EVQLVESGGGLVKPGRSLRLSCTASGFTFGDYAMSWFRQAPGKGLEWVGFIRSKAYGGTTEYAASVKGRFTISRDDSKSIAYLQMNSLKTEDTAVYYCTRDRYARYDILTGLSPAGADYFYYAMDVWGQGTTVTVSS
VL: EIVLTQSPATLSLSPGERATLSCRASQSVSSYLAWYQQKPGQAPRLLIYDASNRATGIPARFSGSGSGTDFTLTISSLEPEDFAVYYCQQRSNWPQYTFGQGTKLEIK
B2 registered a Kd below 0.01 nM.
